Here are results for 1 substance from US6511832.

Data set [1] has as its system LEF-4 L105F L105F (Autographa californica nuclear polyhedrosis virus). The following applies: 5'-triphosphate; RNA triphosphatase at nonpermissive temperature (33 C); equal to wild type at 25 C.
Data set [2] deals with LEF-4 (Autographa californica nuclear polyhedrosis virus). The conditions noted are these: 5'-triphosphate; RNA 5'-triphosphatase turnover, 0.3 mM MnCl2, 30 C.
The target of data set [3] is baculovirus RNA polymerase complex (LEF-8/LEF-9/LEF-4/p47) (Autographa californica nuclear polyhedrosis virus) (UniProt P41452+P41465+P41477+P34051). The following applies: 5'-triphosphate; RNA 5'-triphosphatase turnover, 0.3 mM MnCl2, 30 C.
Sequence of UniProt P41452 (P41452 whole entry, chain 1 of 4): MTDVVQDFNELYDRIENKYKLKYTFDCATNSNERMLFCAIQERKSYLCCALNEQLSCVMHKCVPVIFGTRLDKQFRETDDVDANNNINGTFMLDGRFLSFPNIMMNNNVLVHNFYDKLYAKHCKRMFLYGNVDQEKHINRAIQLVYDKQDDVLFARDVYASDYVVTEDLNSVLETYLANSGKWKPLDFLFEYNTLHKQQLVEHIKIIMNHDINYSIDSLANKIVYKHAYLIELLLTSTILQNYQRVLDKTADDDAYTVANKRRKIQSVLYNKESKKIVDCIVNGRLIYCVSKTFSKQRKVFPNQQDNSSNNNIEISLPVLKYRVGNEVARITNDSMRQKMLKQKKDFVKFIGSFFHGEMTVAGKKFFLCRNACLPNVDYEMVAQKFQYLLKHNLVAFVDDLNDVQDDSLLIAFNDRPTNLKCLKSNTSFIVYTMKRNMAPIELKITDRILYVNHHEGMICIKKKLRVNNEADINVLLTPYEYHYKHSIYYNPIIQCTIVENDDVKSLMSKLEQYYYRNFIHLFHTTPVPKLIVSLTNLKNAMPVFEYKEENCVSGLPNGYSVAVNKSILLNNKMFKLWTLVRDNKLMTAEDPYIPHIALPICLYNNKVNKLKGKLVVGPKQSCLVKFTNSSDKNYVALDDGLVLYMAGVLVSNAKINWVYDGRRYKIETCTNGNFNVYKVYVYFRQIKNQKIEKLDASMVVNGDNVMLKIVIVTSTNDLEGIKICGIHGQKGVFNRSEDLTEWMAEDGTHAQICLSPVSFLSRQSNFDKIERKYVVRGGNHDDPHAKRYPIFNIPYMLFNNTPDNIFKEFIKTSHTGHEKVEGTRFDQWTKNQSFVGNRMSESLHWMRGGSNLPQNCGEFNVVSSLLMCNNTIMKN
Sequence of UniProt P41452 (P41465 whole entry, chain 2 of 4): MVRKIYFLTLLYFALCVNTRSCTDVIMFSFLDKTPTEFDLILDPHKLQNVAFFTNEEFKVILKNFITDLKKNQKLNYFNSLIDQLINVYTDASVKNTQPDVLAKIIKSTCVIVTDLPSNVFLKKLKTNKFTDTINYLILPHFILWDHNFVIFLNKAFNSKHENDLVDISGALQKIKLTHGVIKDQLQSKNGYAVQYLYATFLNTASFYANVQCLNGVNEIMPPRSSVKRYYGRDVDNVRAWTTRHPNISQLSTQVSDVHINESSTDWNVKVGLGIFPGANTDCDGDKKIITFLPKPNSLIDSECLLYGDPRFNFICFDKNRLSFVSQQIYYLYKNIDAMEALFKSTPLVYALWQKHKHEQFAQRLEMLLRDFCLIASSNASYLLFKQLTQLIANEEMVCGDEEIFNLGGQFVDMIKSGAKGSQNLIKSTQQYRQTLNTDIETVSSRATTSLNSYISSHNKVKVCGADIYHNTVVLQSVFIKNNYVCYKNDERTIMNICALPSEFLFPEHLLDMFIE
Sequence of UniProt P41452 (P41477 whole entry, chain 3 of 4): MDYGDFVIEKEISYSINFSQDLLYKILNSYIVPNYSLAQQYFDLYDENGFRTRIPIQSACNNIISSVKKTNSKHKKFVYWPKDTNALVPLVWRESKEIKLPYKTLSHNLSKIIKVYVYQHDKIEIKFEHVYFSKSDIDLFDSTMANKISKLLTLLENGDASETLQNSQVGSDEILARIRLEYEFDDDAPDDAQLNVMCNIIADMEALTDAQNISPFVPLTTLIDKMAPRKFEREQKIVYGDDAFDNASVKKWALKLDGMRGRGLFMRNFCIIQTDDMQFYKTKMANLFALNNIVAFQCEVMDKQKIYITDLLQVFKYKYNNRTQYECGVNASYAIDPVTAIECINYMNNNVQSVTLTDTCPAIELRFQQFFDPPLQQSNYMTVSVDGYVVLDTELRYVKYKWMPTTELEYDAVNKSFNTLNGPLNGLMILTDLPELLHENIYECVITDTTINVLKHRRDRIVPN
Sequence of UniProt P41452 (P34051 whole entry, chain 4 of 4): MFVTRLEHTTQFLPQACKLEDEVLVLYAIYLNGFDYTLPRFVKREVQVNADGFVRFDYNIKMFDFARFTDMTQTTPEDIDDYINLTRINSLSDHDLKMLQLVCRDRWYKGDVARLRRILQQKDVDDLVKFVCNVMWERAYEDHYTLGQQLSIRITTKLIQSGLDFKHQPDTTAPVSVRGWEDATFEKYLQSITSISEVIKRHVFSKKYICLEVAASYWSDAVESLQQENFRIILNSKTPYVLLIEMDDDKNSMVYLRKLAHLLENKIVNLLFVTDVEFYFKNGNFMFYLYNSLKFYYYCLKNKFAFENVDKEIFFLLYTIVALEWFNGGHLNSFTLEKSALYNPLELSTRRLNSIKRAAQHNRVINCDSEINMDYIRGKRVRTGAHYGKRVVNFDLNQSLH
Data set [4] relates to LEF-4 R51A R51A (Autographa californica nuclear polyhedrosis virus). The following applies: 5'-triphosphate; RNA triphosphatase.
Data set [5] relates to LEF-4 E9/11A E9A,E11A (Autographa californica nuclear polyhedrosis virus). The conditions noted are these: 5'-triphosphate; RNA triphosphatase reduced 100-fold.
For data set [6], the system named is LEF-4 wild type (E. coli) (Autographa californica nuclear polyhedrosis virus). The conditions noted are these: 5'-triphosphate; RNA triphosphatase, 1 uM RNA.

In data set [1], “gamma-32P 5'-triphosphate 150-nt T3 transcript of pBluescript KS” displayed a binding signal (% of wild type) of 74. The activity in data set [2] was found to be 0.31 fmol/s/fmol; in data set [3] it was 0.16 fmol/s/fmol. Besides, the RNA triphosphatase activity (% of wild type) in data set [4] is 2.5. The substance further showed a binding signal (fraction of wild type) in data set [5] of 0.01. Further, the activity (pmol Pi/pmol per 15 min) in data set [6] came out at 210.
